Measurements: PMC3882260, “Defining the Ligand Specificity of the Deleted in Colorectal Cancer (DCC) Receptor” (PLoS ONE, 2014)

Target: T1, extracellular domain of human DCC (M1-N1097) with a C-terminal Fc tag (human, UniProt P43146 26-1097)
T1 construct: signal peptide in the construct; Deleted in Colorectal Cancer (DCC), human, extracellular domain, amino acids 1-1097; On the array it was loaded on protein-A microbeads 1:1 with Cy5-labeled human IgG; in SPR it was amine-coupled to the chip; also called DCC-Fc; source: CHO cells, transient transfection, purified (protein A-Sepharose, gel filtration); not shown: Fc (human IgG), C-terminal, kept
Assay: peptide or protein array; DCC-Fc mixed 1:1 with Cy5-labeled hIgG on multivalent protein-A microbeads, incubated with extracellular protein microarrays (Library 1: 1,334 samples; Library 2: 624 samples) on epoxysilane slides; washed with PBS-T; Cy5 fluorescence; two replicate screens
Conditions: both partners purified

T1 sequence (P43146 26-1097): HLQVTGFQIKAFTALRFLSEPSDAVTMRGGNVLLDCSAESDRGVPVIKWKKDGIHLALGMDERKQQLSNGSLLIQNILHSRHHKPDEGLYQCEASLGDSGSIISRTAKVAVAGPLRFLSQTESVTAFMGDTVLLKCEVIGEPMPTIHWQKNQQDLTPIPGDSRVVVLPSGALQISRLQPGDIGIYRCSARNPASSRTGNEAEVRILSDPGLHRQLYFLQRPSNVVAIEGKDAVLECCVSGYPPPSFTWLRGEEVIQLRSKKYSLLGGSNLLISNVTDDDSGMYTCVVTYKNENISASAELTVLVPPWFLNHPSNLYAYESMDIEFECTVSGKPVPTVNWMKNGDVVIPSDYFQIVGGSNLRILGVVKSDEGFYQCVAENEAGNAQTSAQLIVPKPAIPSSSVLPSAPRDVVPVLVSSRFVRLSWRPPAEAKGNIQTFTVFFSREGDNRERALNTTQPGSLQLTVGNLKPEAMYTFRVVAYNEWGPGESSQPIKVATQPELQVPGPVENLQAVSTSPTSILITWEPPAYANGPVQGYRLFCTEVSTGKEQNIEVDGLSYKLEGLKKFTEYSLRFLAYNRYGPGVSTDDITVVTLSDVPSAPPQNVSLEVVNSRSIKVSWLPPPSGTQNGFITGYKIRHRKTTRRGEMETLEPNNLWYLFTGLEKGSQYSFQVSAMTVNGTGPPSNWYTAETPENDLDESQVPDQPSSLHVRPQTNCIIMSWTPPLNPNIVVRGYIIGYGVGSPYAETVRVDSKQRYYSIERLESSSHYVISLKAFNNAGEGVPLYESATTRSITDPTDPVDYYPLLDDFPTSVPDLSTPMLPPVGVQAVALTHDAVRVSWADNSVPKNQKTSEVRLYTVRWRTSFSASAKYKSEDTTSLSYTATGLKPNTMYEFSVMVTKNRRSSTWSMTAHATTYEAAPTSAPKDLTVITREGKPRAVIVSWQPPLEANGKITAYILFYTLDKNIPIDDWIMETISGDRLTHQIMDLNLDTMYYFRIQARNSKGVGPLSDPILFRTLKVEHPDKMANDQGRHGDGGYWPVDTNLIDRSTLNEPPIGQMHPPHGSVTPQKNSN

binding result: binds
B1: full length CBLN4 C-terminal His (ligand, human, UniProt Q9NTU7 28-201, looked up)
chain: QNDTEPIVLEGKCLVVCDSNPATDSKGSSSSPLGISVRAANSKVAFSAVRSTNHEPSEMSNKTRIIYFDQILVNVGNFFTLESVFVAPRKGIYSFSFHVIKVYQSQTIQVNLMLNGKPVISAFAGDKDVTREAATNGVLLYLDKEDKVYLKLEKGNLVGGWQYSTFSGFLVFPL
notes: Cerebellin 4 (CBLN4), full length; also called CBLN4-His
